Test results taken from the supplement of paper PMC10567573.

B1: PTPN9 (parent)
chain: TQHLPRECLPENLGGYVKIDLATW

Variants of: B1
Assay: protein stability index of a GFP-peptide fusion (GPS, HEK-293T) (PSI 1-6); higher = more stable
Conditions: c terminus: a fixed tail appended
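Also: lentivirally expressed fusions sorted by FACS into six bins by GFP to DsRed ratio, PSI derived from sequencing read proportions per bin multiplied by bin number.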

Row | Variant | protein stability index
1 | TQHLPRECLPENLGGYVKHDLATW [I19H] | 2.5
2 | TQHLPRECLPENLGGYVKNDLATW [I19N] | 2.67
3 | TQHLPRECLPENLGGYVKKDLATW [I19K] | 3.08
4 | TQHLPRECLPENLGGYVKEDLATW [I19E] | 3.58
5 | TQHLPRECLPENLGGYVKISLATW [D20S] | 1.92
6 | TQHLPRECLPENLGGYVKIMLATW [D20M] | 1.69
7 | TQHLPRECLPENLGGYVKIFLATW [D20F] | 2.58
8 | TQHLPRPCLPENLGGYVKIDLATW [E7P] | 2.52
9 | TQHLPRWCLPENLGGYVKIDLATW [E7W] | 1.93
10 | TQHLPREFLPENLGGYVKIDLATW [C8F] | 2.3
11 | TQHLPREWLPENLGGYVKIDLATW [C8W] | 1.72
12 | TQHLPREPLPENLGGYVKIDLATW [C8P] | 2.16
13 | TQHLPREYLPENLGGYVKIDLATW [C8Y] | 2.11
14 | TQHLPRECLPWNLGGYVKIDLATW [E11W] | 1.56
15 | TQHLPRECLPCNLGGYVKIDLATW [E11C] | 1.52
16 | TQHLPRECLPYNLGGYVKIDLATW [E11Y] | 1.77
17 | TQHLPRECLPVNLGGYVKIDLATW [E11V] | 1.58
18 | TQHLPRECLPKNLGGYVKIDLATW [E11K] | 1.79
19 | TQHLPRECLPRNLGGYVKIDLATW [E11R] | 1.62
20 | TQHVPRECLPENLGGYVKIDLATW [L4V] | 1.96
21 | TQHAPRECLPENLGGYVKIDLATW [L4A] | 1.8
22 | TQHYPRECLPENLGGYVKIDLATW [L4Y] | 1.99
23 | TQHPPRECLPENLGGYVKIDLATW [L4P] | 2.5
24 | TQHWPRECLPENLGGYVKIDLATW [L4W] | 2.14

Row | Variant | protein stability index
25 | TQHLPRECLPENLGGYTKIDLATW [V17T] | 2.36
26 | TQHLPRECLPENLGGYRKIDLATW [V17R] | 2
27 | TQHLPRECLPENLGGYSKIDLATW [V17S] | 2.57
28 | TQHLPRECLPENLGGYKKIDLATW [V17K] | 3.12
29 | TQHLPRECLPENLGGYAKIDLATW [V17A] | 2.57
30 | TQHLPRECLPENLGGYMKIDLATW [V17M] | 2.01
31 | TQHLPRECLPENLAGYVKIDLATW [G14A] | 1.96
32 | TQHLPRECLPENLLGYVKIDLATW [G14L] | 1.43
33 | TQHLPRECLPENLGGYVKIDLALW [T23L] | 1.76
34 | TQHLPRECLPENLGGYVKIDLAQW [T23Q] | 2.58
35 | TQHLPRECLPENLGGYVKIDLAEW [T23E] | 2.73
36 | TQHLPRECLPENLGGYVKIDLAIW [T23I] | 2.02
37 | TQHLPRECLPENLGGYVKIDLAYW [T23Y] | 1.71
38 | TQHLPVECLPENLGGYVKIDLATW [R6V] | 2.26
39 | TQHLPEECLPENLGGYVKIDLATW [R6E] | 2.27
40 | TQHLPMECLPENLGGYVKIDLATW [R6M] | 2.16
41 | TQHLPDECLPENLGGYVKIDLATW [R6D] | 2.52
42 | TQHLPAECLPENLGGYVKIDLATW [R6A] | 2.08
43 | TQHLPCECLPENLGGYVKIDLATW [R6C] | 1.69
44 | TQHLPRECLPENLGHYVKIDLATW [G15H] | 1.76
45 | TQHLPRECLPENLGIYVKIDLATW [G15I] | 2.16
46 | TQHLPRECLPENLGMYVKIDLATW [G15M] | 2.81
47 | TQHLPRECLPENLGDYVKIDLATW [G15D] | 2.2
48 | TQHLPRECLPENLGEYVKIDLATW [G15E] | 2.26

Row | Variant | protein stability index
49 | TQHLPRECLPENLGAYVKIDLATW [G15A] | 1.67
50 | TQHLDRECLPENLGGYVKIDLATW [P5D] | 2.26
51 | TQHLGRECLPENLGGYVKIDLATW [P5G] | 1.73
52 | TQHLQRECLPENLGGYVKIDLATW [P5Q] | 1.66
53 | TQHLERECLPENLGGYVKIDLATW [P5E] | 2.6
54 | TQHLPRECTPENLGGYVKIDLATW [L9T] | 2.01
55 | TQHLPRECGPENLGGYVKIDLATW [L9G] | 1.61
56 | TQHLPRECAPENLGGYVKIDLATW [L9A] | 2.55
57 | TQHLPRECCPENLGGYVKIDLATW [L9C] | 1.73
58 | TQHLPRECEPENLGGYVKIDLATW [L9E] | 2.22
59 | TQHLPRECLPENLGGYVLIDLATW [K18L] | 2.52
60 | TQHLPRECLPENLGGYVGIDLATW [K18G] | 1.93
61 | TQHLPRECLPENLGGYVIIDLATW [K18I] | 2.12
62 | TQHLPRECLPENLGGYVAIDLATW [K18A] | 2
63 | TQHLPRECLPENLGGWVKIDLATW [Y16W] | 1.5
64 | TQHLPRECLPENLGGQVKIDLATW [Y16Q] | 2.67
65 | TQHLPRECLPENLGGIVKIDLATW [Y16I] | 2.29
66 | TQHLPRECLPENLGGYVKIDLQTW [A22Q] | 2.01
67 | TQHLPRECLPENLGGYVKIDLATT [W24T] | 3
68 | TQHLPRECLPENLGGYVKIDLATQ [W24Q] | 3.13
69 | TQHLPRECLPENLGGYVKIDLATN [W24N] | 3.51
70 | TQHLPRECLPENLGGYVKIDLATV [W24V] | 2.06
71 | TQHLPRECLAENLGGYVKIDLATW [P10A] | 1.64
72 | TQHLPRECLHENLGGYVKIDLATW [P10H] | 1.91

Row | Variant | protein stability index
73 | TQHLPRECLCENLGGYVKIDLATW [P10C] | 1.8
74 | TQHLPRECLWENLGGYVKIDLATW [P10W] | 1.85
75 | TQHLPRECLGENLGGYVKIDLATW [P10G] | 1.72
76 | TQHLPRECLPENMGGYVKIDLATW [L13M] | 2.27
77 | TQHLPRECLPENFGGYVKIDLATW [L13F] | 1.41
78 | TQHLPRECLPENDGGYVKIDLATW [L13D] | 2.65
79 | TQHLPRECLPENAGGYVKIDLATW [L13A] | 2.5
80 | TQHLPRECLPENLGGYVKIDMATW [L21M] | 1.88
81 | TQHLPRECLPENLGGYVKIDHATW [L21H] | 2.17
82 | TQHLPRECLPENLGGYVKIDIATW [L21I] | 1.65
83 | TQHLPRECLPEKLGGYVKIDLATW [N12K] | 1.8
84 | TQHLPRECLPEWLGGYVKIDLATW [N12W] | 1.51
85 | TQHLPRECLPEQLGGYVKIDLATW [N12Q] | 1.91
86 | TKHLPRECLPENLGGYVKIDLATW [Q2K] | 1.86
87 | TWHLPRECLPENLGGYVKIDLATW [Q2W] | 1.49
88 | TVHLPRECLPENLGGYVKIDLATW [Q2V] | 1.66
89 | TTHLPRECLPENLGGYVKIDLATW [Q2T] | 1.99
90 | TQILPRECLPENLGGYVKIDLATW [H3I] | 1.79
91 | TQLLPRECLPENLGGYVKIDLATW [H3L] | 1.92
92 | QQHLPRECLPENLGGYVKIDLATW [T1Q] | 2.05
93 | FQHLPRECLPENLGGYVKIDLATW [T1F] | 2.14
94 | RQHLPRECLPENLGGYVKIDLATW [T1R] | 2.1
